Reference: a protein production outcome set (Wang et al. 2014)

Test: label from the status in PepcDB records

Sequence	protein production
MAATGVDKDRPRAMTSTTYLGLLLVGIQVLGFVAAIHAVLTVRTAQGAIAWATSLVFMPYLTLLPYLVFGRSRFDAYIEARRQANREMHLAAAELDWRPWVEEALAARQVSGYKGLKALVRMTRTPTLANNRVRLLVNGEASFEAMFKAISAARQVILVQFFIVRDDALGQRLQQLLLERAANGVEVFFLYDAIGSHALPHRYVERLRQGGVQMHGFSTGSGMLNRFQVNFRNHRKVVVVDGECGFVGGHNVGVEYLGEKPPLAPWRDTHMELRGPAVACLQESFAEDWYWATHSLPPLILPPQYDSEGALCQVVASGPADAQETCSLFFVEMINAAHERVWITSPYFVPDEAVMAALRLAVLRGVDVRLLIPSRPDHRTVYAASSLYALEAIRAGVKVFRYQPGFLHQKVVLVDRDTAAVGSANLDNRSFRLNFEVMVVTVDEGFAGEVEAMLEADFAESLEFTPEDRRSVRRLQQLGMRVARLVSPIL	failed
MAAYGLYTHIASNKLRSMLLLAGLFALVYVLVYAGALVAEVVINGNETVAFYLSHAFLDLKVAAPVATVVTAVWVVIAYFFHQSMIDAVTGGHDVTRKEEPRLYNLLENLCISRGITMPKLKIMESPALNAFATGLNPRQYSITVTTGLLNALNDKEIEAVLGHELTHIKNGDVQLMVVAVIIAGVVGFFGELFFRLFTNLSWNSGGSWSSGSSSSRSSSSSSDSKNSGGGAVIVIIIAVVLIVVAWLMSQVVKLALSRSREYLADAGSVELTKDPDAMISALRKIENRGELPGATSAVMELCVDNPREGFADLFATHPSVQSRVDALVKFAGGHDPGPLPDPTDETEQPEAQGAPQDAPPPLSQRPWGDAAGPANPPPVPAPSPSGTTAGNPIGNPMGPWGRH	failed
MACIHIESSHPPAWKTHSVQENKPANADDISNTTLPEHHDGGDGGIQETWAAIGDSGGRGGGYFAGESRKKLEKKKSQVLLEGYALDDQDDLTRAKSLTDDDLEELKGCLDLGFGFSYDEIPELCNTLPALELCYSMSQKFLDDKQQNHHKSQEEDDSSPPPTTTAPIANWKISSPAELESIFIFEPEKDRLCKNEVSAIVR	failed
MACNTCKMCESADKKLESFVASKDVETAFHRTEDQKVKCGFGLQGVCCRLCSNGPCRVTPKSPRGICGADADTIVARNFLRAVASGAACYLHVVENTAKNLKNVGITKGVVKGEKTLNQLAEMFGIESDEKYDKCIKVADKVINDLYKSRDDKMELVEKIAYAPRVKKWKELGIMPGGAKSEVFDAIVKSSTNLNSDPVDMLVNCLNLGISTGLYGLTLTNLLNDVMLGEPVIRMAPVGFNVIDPDYINIMITGHQHSTFANFQDRLKDEDVIKLAQSVGAKGFKLVGCTCVGQDLQLRGEHYQEVFAGHAGNNFTSEAVLSTGAIDIVLSEFNCTIPGLEPIADKYKVKMVCLDDVAKKANAEYIGLDRSKLDELSNTLIEKALESYKERRGSIEIDIPKDHGFEQSLTGVSEKNLKAFLGDSWKPLINLIAEGKIKGVAAVVGCSNMTAGGHDVNTVELTKELIKKDIIVLSAGCSTGGLENVGLMSPGAEELAGENLKEVCKTLGIPPVLNFGPCLAIGRLEIVATELAAELGIDLPQLPLVLSAPQWLEEQALADGAFGLALGLPLHLALPPFITGGKLVTEVLTEKLKDLTGGHVIVNPDPKSSANQLEEIIIDRRKNLGLKDVECNA	failed
MADERYNRKNPAVKRILQEVKEMQANPSDDFMSLPLEENIFEWQFAIRGPGDTEFEGGIYHGRIQLPADYPFKPPSFMLLTPNGRFETNTKICLSISNYHPEHWQPSWSVRTALVALIAFMPTSPNGALGSVDYPKDERRTLAIKSRETPPKYGSPERQKIIDEIHQYILSKATVVPKPLPLECSQAPSIVSEAHSQVEPQEAITVVEERSIATTDTIVDDQIIEETAEAVNTAASVVPAAAPLPAVEVVVKASVSGEQRMARRAAQKPVDDRLFTWAAVGLTIAIMVLLLKKFIKSNGYSTGFMDDQS	failed
MADFQGETEMTAEVFDPRALRDAFGAFATGVTVVTASDAAGKPIGFTANSFTSVSLDPPLLLVCLAKSSRNYESMTSAGRFAINVLSETQKDVSNTFARPVEDRFAAVDWRLGRDGCPIFSDVAAWFECSMQDIIEAGDHVIIIGRVTAFENSGLNGLGYARGGYFTPRLAGKAVSAAVEGEIRLGAVLEQQGAVFLAGNETLSLPNCTVEGGDPARTLAAYLEQLTGLNVTIGFLYSVYEDKSDGRQNIVYHALASDGAPRQGRFLRPAELAAAKFSSSATADIINRFVLESSIGNFGIYFGDETGGTVHPIANKDAHS	not failed
MADIDQASKTEMEAAAFRHLLRHLDEHKDVQNIDLMIQADFCRNCLAKWLMEAATEQGVELDYDGAREYVYGMPFAEWKTLYQKPASEAQLAAFEAKQAARKR	not failed
MADKAFHTRLINMRRDLHEHPELSFQEVETTKKIRRWLEEEQIEILDVPQLKTAVIAEIKGREDGPVIAIRADIDALPIQEQTNLPFASKVDGTMHACGHDFHTASIIGTAMLLNQRRAELKGTVRFIFQPAEEIAAGARKVLEAGVLNGVSAIFGMHNKPDLPVGTIGVKEGPLMASVDRFEIVIKGKGGHASIPNNSIDPIAAAGQIISGLQSVVSRNISSLQNAVVSITRVQAGTSWNVIPDQAEMEGTVRTFQKEARQAVPEHMRRVAEGIAAGYGAQAEFKWFPYLPSVQNDGTFLNAASEAAARLGYQTVHAEQSPGGEDFALYQEKIPGFFVWMGTNGTEEWHHPAFTLDEEALTVASQYFAELAVIVLETIK	not failed
MADKAVADRTIEGLTRAGAAMAAGEIDQAAAHLQAAAQLCPDEPMIWALLGEVLLLLDRPQDGLGALDRALALAPEDPRPRFHRARAFERLDRLAEALADQEALAILCANKAEVWHNLGLLRRAGGDPSGAEAAFGRALALEPSRAESALALAHSLLGRAAWAEGFAHYEARLSLPGWQRPAPLPGRRWRGEDPAGRTLLVSAEQGLGDGVQFLRYLPLIKGAGKVIVECHPPLRRLIAAQPGVDATIAFGEAIPDLGAEGLTIPLASLALPLAGGAPLGERIPYVSKPRLRPQGDRPRIGLAWRSSDRAELRRDPPLAALAALAAIPAVDWVSLQFAPTDYPALPLDLRPMASVDDLDDTAALIADLDLVISVDTAVAHLAGAMGKPLWVLLGPRADWRWTASAQSSPWYPSCVPFFHGAEGWPGVIAAVSERLKAAFNGPPAR	failed
MADKVYEATAEAKGYNEEGVPIVLTVKAIKKDGKVVVTDIVAKHQETDKIGAVAIEKLIEEVKTKQNYNKLDSVAGATSTSAGFRRAIRNAVKDIEKQNLEHHHHHH	not failed
MADMESLDTAEMQEAAEKQAALFPNGGKSAEPTAAKHTATGLADGNKKPPVSNSFLDKFFQISKRGSTLAREFRGGLVTFFTMAYIVILNPLILGGFSAENAPTDVAGGWLSAAQVGAVTGLTAGVMTIIFGLVANLPFGLAAGLGINSFLAVAVIQEVTWPEAMGLVVINGILIVLFGATGARTAIFKAVPKELKAAITVGIGLFIAFIGFVDSGFVRATTGGPPVQLGDNGSITSIPTLVFIVGLLTMGILVARKIQGGLLIGIVATTVLAAVVEAVFHIGPGSADNPGGWHLNVPILSSQLVSVPDLSLVGQFDLFGSFARIGGLAATMLVFTLVFTNFFDAMGTMTGLAKSAGVAHKDGTFPKLKSAFIVEGMGAVVGGATSGSSNTVYIDSAAGIGEGARTGLASVVTGLLFLGSMFFTPLTSVVPLEVAAAALVVVGAMMMAQIREIKFTKFSIALPAFLTIVTMPLTYSIANGIGVGFISFAVISAASGKAKKVHPLMWVVTAGFIIYFARGPINALMGV	failed
MADNSATRVRVPSDRNSRRKIKGEVDIISSLPDVILQHILFSFQTKYAIRTSVLSKRWRHEADAINKALSQYTAPKMMNFHLKINKNNSLHHIKKWTEFAMSRNVENMSLDVRFRSNKIPRFYEINSSVKSLSHRLDLHDVIPRHGVSWTSLKKFSLSYCGLPDESAKILSGCPILEWPMQIVAPQIHCLKLRNTQLPCTLVDVSSLTEAEVLDIIIFPVNLSYNADFLHATMLEMLKKLKNVEKLTFSGSYLQNLSVAEKRGVPFPMFKVKALTLEMKHFVISDIERMLQSSPNLKKLTVRAKDNTGKYLYRYFARLESGSMLELKKGV	failed
MADPIRIFIGSGEASRIERQVAIDSLQRMTDRPLAITAFNGTHNALEVLGEPPRPAPMSLRVKYWNATEFSLYRFLIPELCGYQGRAIYIDSDVVCLHDIGELFDTDLEGADFLAKAEAYPDRAGALWGLSVVLFDCDRCRFPLEQFIDELEAGVYDYRDLPCMGPRFLNKRPYQIGALDPRWNSFDFADRETRLIHYTDLKRQPWKRPGHPYGDLWFKAMQQALDSGILTDTEISQAIKRFNVRDDIREGNRPRWLTRQRLRSWLRQVKQQLRPVKV	failed
MADQLIEEVKQLIIDALRIEGMTPAEIDTDAPLFGEGLGLDSIDALQLVVAMEKQYGVVVPDAATGTKVFQSVRTVADFVAENRKLEHHHHHH	failed
MADRVIRADAKGVMRVEDGQAYNEAGQRLDDHALIPPEDANEDQARLNAQLAARDAAGLIVDLHNRGIDRHLWEQNEDAIGVERHNRGVDRHQPQIPAAIPLAAEPRRTLGDFNRPGMFYANRSAIVPPPYQRNDYESHLFYYITLHI	failed
MADTGEVQFMKPFISEKSSKSLEIPLGFNEYFPAPFPITVDLLDYSGRSWTVRMKKRGEKVFLTVGWENFVKDNNLEDGKYLQFIYDRDRTFYVIIYGHNMC	not failed
MADVEIMQTVQTEVKKTTKKVKKSSKRRESEVQISEVEVDATIEERGGEYTKAMDKDWHSGHFCCWQCDESLTGQRYVIRDDHPYCIKCYENVFANTCEECNKIIGIDSKDLSYKDKHWHEACFLCFKCHLSLVDKQFGAKADKIYCGNCYDAQFASRCDGCGEVFRAGTKKMEYKTRQWHENCFCCCVCKTAIGTKSFIPREQEIYCAGCYEEKFATRCIKCNKVITSGGVTYKNEPWHRECFTCTHCNITLAGQRFTSRDEKPYCAECFGELFAKRCTACVKPITGIGGTRFISFEDRHWHHDCFVCASCKASLVGRGFITDGPDILCPDCAKQKLM	failed
